Results taken from PMC10638432, “Biodistribution and function of coupled polymer-DNA origami nanostructures”.

Biological target: recombinant human TNF-alpha (biotinylated, R&D Systems BT210) (human, UniProt P01375 77-233)
Assay: flow cytometry (FACS) bead binding; TT linker did not affect binding; PBS-/- (no Ca/Mg) with 0.005% Tween-20, 1 h at 37 C, biotinylated TNFa on streptavidin magnetic beads; pH not stated
Conditions: protein: commercial; tags: biotin; chain copies: 3; label: 5' ATTO647N

Sequence of recombinant human TNF-alpha (biotinylated, R&D Systems BT210) (P01375 77-233): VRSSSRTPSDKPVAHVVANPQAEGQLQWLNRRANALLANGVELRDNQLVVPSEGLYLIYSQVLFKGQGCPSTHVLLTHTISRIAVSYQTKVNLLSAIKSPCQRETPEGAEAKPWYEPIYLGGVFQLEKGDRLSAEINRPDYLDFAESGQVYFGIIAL

B1: TNFa aptamer polyT linker (hTNFa long rod aptamer) (ssDNA)
DNA: TTTGGTGGATGGCGCAGTCGGCGACAA
B1: binds.
